Data published in US8247194 (Amgen, dated 2012).
Residue numbers refer to the chain shown, from its start.

B1: half-human SCA B33oN-22 (scFv)
scFv: ELQLVEQSGAALVKPGDSVKMSCKASGYPFTDYIVHWVKQSHGKSLDWIGYINPYSGDTKFNEKFKSKATLTVDKSSSTAYMEFSRLTSEDSAIYYCARSGLIAVYFDYWGQGTTVTVSSGGGGSGGGGSGGGGSELVLTQSPDFQSVTPKEKVTITCRASQSIGSSLHWYQQKPDQSPKLLIKFASQSFSGVPSRFSGSGSGTDFTLTINSLEAEDAATYYCQQSYSTPPTFGQGTKVEIKTGDYKDDDDKHHHHHH
notes: Expressed from pComb3H5BFlag/His
B2: half-human SCA B32oN-44 (scFv)
scFv: B1 scFv with S178P, F190I, G192R, S200T, Y227F, T229F, P231Y, V239L
notes: as for B1
B3: half-human SCA B32oN-49 (scFv)
scFv: B1 scFv with F190L, N211S, E214Q, A215P, A218F, S228T, Q235G
notes: as for B1
B4: half-human SCA B33oN-8 (scFv)
scFv: ELQLVEQSGAALVKPGDSVKMSCKASGYPFTDYIVHWVKQSHGKSLDWIGYINPYSGDTKFNEKFKSKATLTVDKSSSTAYMEFSRLTSEDSAIYYCARSGLIAVYFDYWGQGTTVTVSSGGGGSGGGGSGGGGSELVLTQSPGFQSVTPKEKVTITCRASQSIGSSLNWYQQKPDQPPKLLIKFASQSISGVSSRFSGTGSGTDFTLTISSLQPEDVATYYCQQSYSTPPTFGQGTKLEIKTGDYKDDDDKHHHHHH
notes: as for B1
B5: half-human SCA B33oN-21 (scFv)
scFv: B1 scFv with F190L, P231W, V239L
notes: as for B1
B6: half-human SCA B33oN-66 (scFv)
scFv: B1 scFv with S167N, T207S, K238R, V239L
notes: as for B1
B7: half-human SCA B33oN-69 (scFv)
scFv: B1 scFv with S166T, S167G, S212G, Y227S, S228T, T229L, V239L
notes: as for B1
B8: half-human SCA B33oN-115 (scFv)
scFv: B1 scFv with F190L, N211S, E214Q, A215P, A218F, P231S, Q235P
notes: as for B1
B9: half-human SCA C32oN-10 (scFv)
scFv: B1 scFv with F190L, A218F, P231S, Q235P
notes: as for B1
B10: half-human SCA C32oN-21 (scFv)
scFv: B1 scFv with D144G, F190I, S200T, Y227S, S228T, T229L, V239L
notes: as for B1
B11: half-human SCA C32oN-34 (scFv)
scFv: B1 scFv with K153R, S163T, S166N, S167N, D176G, P231W
notes: as for B1
B12: half-human SCA C32oN-46 (scFv)
scFv: B1 scFv with F190L, N211S, E214Q, A215P, A218F
notes: as for B1
B13: half-human SCA C33oN-49 (scFv)
scFv: B1 scFv with P231W, V239L
notes: as for B1
B14: half-human SCA B32oN-10 (scFv)
scFv: ELQLVEQSGAALVKPGDSVKMSCKASGYPFTDYIVHWVKQSHGKSLDWIGYINPYSGDTKFNEKFKSKATLTVDKSSSTAYMEFSRLTSEDSAIYYCARSGLIAVYFDYWGQGTTVTVSSGGGGSGGGGSGGGGSELQMTQSPSSLSASVGDRVTITCRTSQTISSLLNWYQQKPGKAPKLLIYAASNLQSGVPSRFSGSGSGTDFTLTISGLQPEDFSTYFCQQSYSFPRTFGQGTKVDIKTGDYKDDDDKHHHHHH
notes: as for B1
B15: half-human SCA B32oN-33 (scFv)
scFv: ELQLVEQSGAALVKPGDSVKMSCKASGYPFTDYIVHWVKQSHGKSLDWIGYINPYSGDTKFNEKFKSKATLTVDKSSSTAYMEFSRLTSEDSAIYYCARSGLIAVYFDYWGQGTTVTVSSGGGGSGGGGSGGGGSELVMTQSPATLSLSPGERATLSCRASQSVRTYLAWYQQKPGQAPRLLIYAASHRATGIPARFSGSGSGTDFTLTISRLEPEDFAVYYCQQYGSSPPTFGQGTKVEIKTGDYKDDDDKHHHHHH
notes: as for B1
B16: half-human SCA B32oN-67 (scFv)
scFv: B4 scFv with N169H, P178S, S194P, S198T, T200S, V218I, P231W
notes: as for B1
B17: half-human SCA B32oN-48 (scFv)
scFv: B1 scFv with D144G, S178P, F190I, D205N, Y227S, S228T, T229L
notes: as for B1
B18: half-human SCA B32oN-73 (scFv)
scFv: B4 scFv with N169H, P178S, S194P, V218I, P231W
notes: as for B1
B19: half-human SCA C32oN-92 (scFv)
scFv: B1 scFv with F190L, T207A, Y227S, S228T, T229L, V239L
notes: as for B1
B20: half-human SCA B33oN-35 (scFv)
scFv: ELQLVEQSGAALVKPGDSVKMSCKASGYPFTDYIVHWVKQSHGKSLDWIGYINPYSGDTKFNEKFKSKATLTVDKSSSTAYMEFSRLTSEDSAIYYCARSGLIAVYFDYWGQGTTVTVSSGGGGSGGGGSGGGGSELQMTQSPSSLSASVGDRVTITCRASQSIGSSLHWYQQKPDQSPKLLIKFASQSFSGVPSRFGGSGSGTNFTLTINSLEAEDAATYYCQQSSTLPPTFGQGTKLEIKTGDYKDDDDKHHHHHH
notes: as for B1
B21: half-human SCA C32oN-89 (scFv)
scFv: ELQLVEQSGAALVKPGDSVKMSCKASGYPFTDYIVHWVKQSHGKSLDWIGYINPYSGDTKFNEKFKSKATLTVDKSSSTAYMEFSRLTSEDSAIYYCARSGLIAVYFDYWGQGTTVTVSSGGGGSGGGGSGGGGSELVLTQSPSSLSASVGDRVTITCRASQSISRYLNWYQQKPGKPPKLLIFVASNLQTGVPSRFSGSGSGTDFTLTISSLEPEDFAVYYCQQRSNWPLTFGGGTKVDIKTGDYKDDDDKHHHHHH
notes: as for B1
B22: half-human SCA C33oN-32 (scFv)
scFv: B1 scFv with D144E, T149A, S198G, D205N, Y227S, S228T, T229L, V239L

Target: T1, recombinant human GM-CSF (rhGM-CSF), produced in E. coli (human, UniProt P04141 18-144)
T1 construct: The ELISA of 2.5.2 and the TF-1 proliferation assays say only rhGM-CSF without naming the preparation; they are assigned to this molecule; also called human GM-CSF antigen; recombinant human granulocyte macrophage colony stimulating factor
T1 sequence (P04141 18-144 limits assumed): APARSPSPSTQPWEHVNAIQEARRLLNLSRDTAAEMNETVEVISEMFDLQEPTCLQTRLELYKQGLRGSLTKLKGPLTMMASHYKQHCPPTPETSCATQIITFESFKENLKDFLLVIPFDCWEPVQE
Experiment: SPR off-rate ranking, purified periplasmic preparation over immobilized rhGM-CSF; clone listed among the sequenced hits in the 2nd table
Procedure: FIG. 9: Binding analysis (kinetic off rate) of SCA hits derived from the method of the invention, as determined by SPR. Binding kinetics of the SCA hits were measured injecting 10 µL of purified periplasmic preparation ("PPP") protein solution with a flow rate of 5 µL/min at 25° C. onto the sensor chip. The data were monitored in all four flow cells. Background association with the unmodified CM5 chip surface (FC1) was substracted from the binding to the immobilised rhGM-CSF (FC2) allowing analysis of the specific binding signal (FC2-FC1 response difference). The dissociation rate was monitored for 100 sec (FIG. 4). The amplitude of the binding peak (RUmax) directly correlates to the protein concentration in the injected sample. The kinetic association rate constant (ka) is concentration dependent and can—due to varying concentrations of the PPP protein solution—not be used for the qualitative ranking of the purified PPP SCA material. The kinetic dissociation rate constant (kd) is protein concentration independent and characteristic for the binding strength of the respective SCA hit. The SCA hits with the best apparent off rate were identified.

Binding result, binds:
B1
B2
B3
B4
B5
B6
B7
B8
B9
B10
B11
B12
B13
B14
B15
B16
B17
B18
B19
B20
B21

Target: T1, recombinant human GM-CSF (rhGM-CSF), …
Experiment: cell-based or functional assay

IC50 (read off the curve), TF-1 proliferation, C33ON-32 dimer, ~0.1 µg/mL:
B22

IC50 (read off the curve), TF-1 proliferation, C33ON-32 mono, ~0.2 µg/mL:
B22
